Values of other authors in article PMC3601010, “The complete N-terminal extension of heparin cofactor II is required for maximal effectiveness as a thrombin exosite 1 ligand” (BMC Biochemistry, 2013).

Molecular target: T1, thrombin (Homo sapiens, UniProt P00734)
T1 construct: purchased Enzyme Research, South Bend, IN; host or cells: HCII 1-75 probe made in house in E. coli TOP10
Conditions: heparin, heparan sulfate, or dermatan sulfate; ref [7]-[11]
From the text: Heparin cofactor II (HCII) is a 66 kDa plasma protein and member of the serpin superfamily of protease inhibitors (reviewed in [3]). It regulates the key coagulation protease thrombin by trapping it in a covalently-linked denaturation-resistant complex. Thrombin-complexed HCII is cleaved at its reactive center peptide bond, while thrombin in the inhibitory complex, by analogy to enzymes in other serpin-enzyme complexes, is conformationally inactivated by active site distortions that render it incapable of completing the catalytic cycle of a proteolytic enzyme. The r ...

- increase of thrombin inhibition rate by GAGs: three to four orders of magnitude
B1: HCII: 66 kDa plasma protein and member of the serpin superfamily of protease inhibitors (protein, UniProt P05546 20-499, looked up)
Heparin cofactor 2: GSKGPLDQLEKGGETAQSADPQWEQLNNKNLSMPLLPADFHKENTVTNDWIPEGEEDDDYLDLEKIFSEDDDYIDIVDSLSVSPTDSDVSAGNILQLFHGKSRIQRLNILNAKFAFNLYRVLKDQVNTFDNIFIAPVGISTAMGMISLGLKGETHEQVHSILHFKDFVNASSKYEITTIHNLFRKLTHRLFRRNFGYTLRSVNDLYIQKQFPILLDFKTKVREYYFAEAQIADFSDPAFISKTNNHIMKLTKGLIKDALENIDPATQMMILNCIYFKGSWVNKFPVEMTHNHNFRLNEREVVKVSMMQTKGNFLAANDQELDCDILQLEYVGGISMLIVVPHKMSGMKTLEAQLTPRVVERWQKSMTNRTREVLLPKFKLEKNYNLVESLKLMGIRMLFDKNGNMAGISDQRIAIDLFKHQGTITVNEEGTQATTVTTVGFMPLSTQVRFTVDRPFLFLIYEHRTSCLLFMGRVANPSRS
modifications: plasma-derived
